# Laboratory results: patent publication US6344189B1, “Use of protease inhibitors for treating skin wounds” (Biotech Australia Pty., Ltd., priority 1998, dated 2002)
# “Also recorded” adds a separate entry of the source. Like-named read-outs stand apart in the source and are kept apart here. Where a SMILES comes first, the peptide text is derived from it. [ ]: non-standard residue; d: D form. The star is where a group is joined. Sta = CC(C)C[C@H](N)[C@@H](O)CC(=O)O; Isovaleryl = CC(C)CC(=O)*
# Columns and labels:
# [1] = system: protease activity in wound fluid; assay: Inhibition of protease activity in wound fluid in vitro, substrate ZGGRAMC, fluorescence at 460 nm; type: biochemical, patients
# Description: Wound fluid was collected from patients with chronic venous leg ulcers, and incubated in vitro in the presence or absence of each inhibitor along with the protease substrate ZGGRAMC. Cleavage of this substrate indicated protease activity, which was detected by fluorescence at 460 nm. Lack of fluorescence indicated inhibition of protease activity.
# Conditions were as described above for single inhibitors.
# [2] = system: chronic venous leg ulcers; assay: Double blind placebo controlled randomized trial of topical PAI-2, ulcer area by tracing; type: in vivo, patients; settings: PAI-2 20 μg per cm^2 topical, five consecutive days; 29-day course; compared with placebo
# Excerpt: The study was a double blind placebo controlled randomized trial. A stratified randomization was utilized according to ulcer size. Patients with ulcers less than, and greater than, 20 cm^2 were randomized separately. No minimum or maximum times were set for the patients' current ulcer episode. Minimum and maximum ulcer areas were 2 cm^2 and 50 cm^2, and a patient's resting ankle brachial doppler arterial pressure index for inclusion was equal to or greater than 0.80.
# All patients received compression bandaging. The area of the ulcer was determined by tracing, and the test solution, either PAI-2 at 1.0 mg/ml in phosphate buffered saline, pH 7.0, or buffer alone, was applied at 20 μl (20 ,μg in the case of PAI-2) per cm^2. The patient was asked to lie recumbent on the examination couch while the test solution was applied to the surface of the wound, and to remain there for 15 minutes before bandaging was applied.
# (§1) Test solution was applied in this manner for five consecutive days. This was followed by visits on days 15, 22, and 29. Ulcer area determination was made on days 1, 5, 15, 22, and 29, ulcer volume was measured by structured light assessment on days 1, 5, and 29, and the ulcer was photographed on days 1, 5, and 29. Adverse events were assessed at each visit, as were concomitant medications.
# uPA [3] = assay: uPA activity in patients' wound fluid by Chromolise assay; type: in vivo
# Description: (§2) In addition, wound fluid was collected on the first day before addition of test solution, and 2 hr, 4 hr, and 6 hr afterwards. Wound fluid collection was also made on days 2, 3, 4, and 5 (before test solution addition) and day 29. Blood samples were taken on day 1 at 0 (before), 0.5 hr, 1 hr, and 2 hr after the test solution, and also at day 5. A punch biopsy was taken for histochemical examination of the ulcer edge on day 5.
# (§3) All wound fluid samples were analyzed for uPA activity by the Chromolise assay, and for total protein by the Bradford assay. If sufficient wound fluid was available, the following assays were also performed, in order of priority: (i) PAI-2 antigen level, by ELISA; (ii) a Western blot to detect whether the PAI-2 molecule was intact, complexed, or in fragments; (iii) total protease activity, determined by a chromogenic assay using azo-casein as substrate, and (iv) total protease activity in the presence of EDTA (to block metalloproteases) or aprotinin (to block plasmin). In addition, blood samples were analyzed by PAI-2 ELISA (0, 0.5, 1, 2 hr on day 1) and analyzed for FBC and clinical chemistry on day 1(0) and day 5.
# (§4) The ELISA used for PAI-2 detected both glycosylated and non-glycosylated PAI-2, and both complexed (with uPA or tPA) and uncomplexed PAI-2. Insufficient wound fluid was obtained for total protease assays in the presence of aprotinin or EDTA. The variation in ulcer volume measurements by structured light assessment was very large:—20.4% on repeated measurements, so those data could not be used to judge small changes in ulcer volume.
# [4] = PAI-2 antigen level by ELISA and Western blot in wound fluid and blood samples; type: in vivo, patients; settings: for level of PAI-2 in wound fluid: first visit
# Description: as §2, §3, §4
# [5] = system: total protease activity in wound fluid; assay: Total protease activity in wound fluid, chromogenic assay with azo-casein substrate; type: in vivo, patients; settings: ng/ml of wound fluid or ng/mg protein
# Description: as §3
# [6] = Adverse events and histological examination of ulcer edge biopsies; type: in vivo, patients
# Description: as §1, §2
# Histological examination was performed on biopsies taken at visit 5 after staining with hematoxylin and eosin. […] This effect is likely to be beneficial to the ulcer.
# [7] = Stability of PAI-2 in wound fluid; type: in vitro ADME; settings: 3-hour period, FIG. 1
# Description: (§5) It also is apparent that the inhibitors must be stable in the wound fluid to be effective in aiding wound healing. In the context of the present invention, an inhibitor is suitably stable when it retains at least 50% of its activity after exposure to wound fluid for 3 hours. In this regard, therefore, it is particularly desirable to use an inhibitor that inhibits uPA and is stable in wound fluid.
# uPA [8] = target: T1, uPA (Homo sapiens, UniProt P00749); assay: Addition of PAI-2 to wound fluid, uPA activity; type: biochemical; settings: PAI-2 added to wound fluid
# T1 construct: from tissue; host or cells: wound fluid
# Description: as §5
# [9] = PAI-2 release from gel in two compartment vessel with microporous membrane; type: physicochemical; settings: cellulose gel, presence of Tween80, FIG. 4
# Excerpt: In these experiments, the PAI-2 containing gel was placed in the top chamber of a two compartment vessel. The bottom chamber contained buffer, and the two chambers were separated by a microporous membrane. The appearance of PAI-2 in the lower chamber indicated PAI-2 release from the gel, and was monitored by assays for PAI-2 activity.
# [10] = single inhibitors, wound fluid of chronic venous leg ulcers
molecule,measurement,setting,value
N=C(N)NC(=O)c1nc(Cl)c(N)nc1N [Amiloride],Percent Inhibition,[1]; [10],96%
"O=C(O)CN(CCN(CC(=O)O)CC(=O)O)CC(=O)O [EDTA, ethylene diamine tetraacetic acid]",Percent Inhibition,[1]; [10],0%
"CCN1C(=O)C=CC1=O [NEM, N-ethyl maleimide]",Percent Inhibition,[1]; [10],21%
CC(C)CC(=O)N[C@H](C(=O)N[C@H](C(=O)N[C@@H](CC(C)C)[C@@H](O)CC(=O)N[C@@H](C)C(=O)N[C@@H](CC(C)C)[C@@H](O)CC(=O)O)C(C)C)C(C)C [Pepstatin] (Isovaleryl-VV[Sta]A[Sta]-OH),Percent Inhibition,[1]; [10],0%
glutamic acid-glycine-arginine chloromethyl ketone [EGRCK],Percent Inhibition,[1],94%
"plasminogen activator inhibitor 2 (protein, UniProt P05120 1-415, looked up) Plasminogen activator …: MEDLCVANTLFALNLFKHLAKASPTQNLFLSPWSISSTMAMVYMGSRGSTEDQMAKVLQFNEVGANAVTPMTPENFTSCGFMQQIQKGSYPDAILQAQAADKIHSSFRSLSSAINASTGNYLLESVNKLFGEKSASFREEYIRLCQKYYSSEPQAVDFLECAEEARKKINSWVKTQTKGKIPNLLPEGSVDGDTRMVLVNAVYFKGKWKTPFEKKLNGLYPFRVNSAQRTPVQMMYLREKLNIGYIEDLKAQILELPYAGDVSMFLLLPDEIADVSTGLELLESEITYDKLNKWTSKDKMAEDEVEVYIPQFKLEEHYELRSILRSMGMEDAFNKGRANFSGMSERNDLFLSEVFHQAMVDVNEEGTEAAAGTGGVMTGRTGHGGPQFVADHPFLFLIMHKITNCILFFGRFSSP",ulcer area,[2],significant decrease in the area of leg ulcers compared to controls; also recorded: a reduction in the ulcer area
same,specific activity of uPA (ng/mg of total protein in wound fluid),"uPA [3]; first day of PAI-2 administration, relative to placebo group",declined over 6 hrs
same,difference in uPA between the two groups expressed as units/ml of wound fluid,uPA [3]; per ml of wound fluid rather than per mg total protein,not apparent
same,uPA activity in wound fluid,"uPA [3]; subsequent days over the course of the study, PAI-2 vs placebo",no significant difference
same,"intact PAI-2 in wound fluid, Western blot",[4]; 2 hr,significant amounts of intact PAI-2
same,level of PAI-2 in wound fluid,[4]; 2 hr after topical application,increased dramatically
same,level of PAI-2 in wound fluid,[4]; 4 hr after topical application,declined almost to baseline
same,systemic distribution of topically applied PAI-2,"[4]; blood samples, PAI-2 ELISA",No evidence of systemic distribution
same,total protease activity,[5],did not appear to be altered
same,"damage to the tissue, histological examination","[6]; biopsies at visit 5, hematoxylin and eosin",No evidence of damage to the tissue
same,systemic toxicity,[6]; in vivo,does not appear to have systemic toxicity
same,adverse events,"[6]; topical PAI-2, chronic leg ulcers, course of the study",none of the adverse events was deemed related to the PAI-2 treatment
same,stability in wound fluid,[7],relatively stable in wound fluid
same,uPA activity in wound fluid,uPA [8],caused the inhibition of uPA activity
same,release of PAI-2 from gel,[9],enhanced release
